Numbering of substitutions follows the chain as printed. Read-outs that look alike come from different tables or passages of the source.
How the values were obtained:
[1] = NanB at its optimal pH; cited from earlier work
[2] = system: TIGR4 Streptococcus pneumoniae; assay type: in vivo; details: for protection against nasal carriage / colonization (nasal wash and nasal tissue) / protection from pneumococci reaching (invasion into) the lungs, olfactory bulb, or brain: CBA/N mice, 50 μg intranasal with CTB, TIGR4 challenge, day 7
[3] = Sialidase (neuraminidase) activity of recombinant NanA fragments; assay type: biochemical
Description: The decreased activity of a detoxified neuraminidase or a neuraminidase fragment as compared to non-detoxified neuraminidase can be measured by the assay of Lock, et al. (Microb. Pathog. 4; 33-43, 1988). Using the Lock assay, NanA activity in lysates, serum, or blood can be measured using 2′-(4-methyl-umbelliferyl)-α-D-N-acetylyneuraminic acid as the substrate in a enzyme assay (Lock et al. 1988). Ten microliters of substrate are combined with 10 μL of serum and incubated for 5 minutes at 37° C. The reaction is stopped using 0.5 M sodium carbonate. Neuraminidase activity is measured in terms of the amount of 4-methylumbelliferone (MU) released per minute. MU has an excitation wavelength of 366 nm and an emission wavelength of 445 nm. […] Thus, the detoxified neuraminidase or fragment thereof can have no measurable enzymatic activity as compared to the enzymatic activity of a non-detoxified neuraminidase. Further, the detoxified neuraminidase can have protective antibody eliciting activity similar to the non-detoxified neuraminidase.
Such an assay is described in Berry et al., J. Bacterial 1784854-4860 (1996).

[4] = MUAN assay of neuraminidase activity; assay type: biochemical; details: MUAN assay at 37° C. at pH 7.0
Source text: The total abolishment of activity is consistent with the proposed activities as based on the alignment with structures previously known.

B1: NanB: another S. pneumoniae neuraminidase, 43% homology with NanA (protein, UniProt Q54727 30-697, looked up)
Sialidase B: NELNYGQLSISPIFQGGSYQLNNKSIDISSLLLDKLSGESQTVVMKFKADKPNSLQALFGLSNSKAGFKNNYFSIFMRDSGEIGVEIRDAQKGINYLFSRPASLWGKHKGQAVENTLVFVSDSKDKTYTMYVNGIEVFSETVDTFLPISNINGIDKATLGAVNREGKEHYLAKGSIDEISLFNKAISDQEVSTIPLSNPFQLIFQSGDSTQANYFRIPTLYTLSSGRVLSSIDARYGGTHDSKSKINIATSYSDDNGKTWSEPIFAMKFNDYEEQLVYWPRDNKLKNSQISGSASFIDSSIVEDKKSGKTILLADVMPAGIGNNNANKADSGFKEINGHYYLKLKKNGDNDFRYTVRENGVVYNETTNKPTNYTINDKYEVLEGGKSLTVEQYSVDFDSGSLRERHNGKQVPMNVFYKDSLFKVTPTNYIAMTTSQNRGESWEQFKLLPPFLGEKHNGTYLCPGQGLALKSSNRLIFATYTSGELTYLISDDSGQTWKKSSASIPFKNATAEAQMVELRDGVIRTFFRTTTGKIAYMTSRDSGETWSKVSYIDGIQQTSYGTQVSAIKYSQLIDGKEAVILSTPNSRSGRKGGQLVVGLVNKEDDSIDWKYHYDIDLPSYGYAYSAITELPNHHIGVLFEKYDSWSRNELHLSNVVQYIDLEINDLTK
[1]
  sialidase activity relative to NanA at its pH optimum: about 1/100

B2: NanA571: recombinant 571-amino-acid central fragment of TIGR4 NanA, corresponding to residues 230-800 of R6 NanA; His-tagged form SEQ ID NO:18 (protein, listed as Streptococcus pneumoniae)
chain: PTAELPKGRVRLYVNGVLSRTSLRSGNFIKDMPDVTHVQIGATKRANNTVWGSNLQIRNLTVYNRALTPEEVQKRSQLFKRSDLEKKLPEGAALTEKTDIFESGRNGNPNKDGIKSYRIPALLKTDKGTLIAGADERRLHSSDWGDIGMVIRRSEDNGKTWGDRVTITNLRDNPKASDPSIGSPVNIDMVLVQDPETKRIFSIYDMFPEGKGIFGMSSQKEEAYKKIDGKTYQILYREGEKGAYTIRENGTVYTPDGKATDYRVVVDPVKPAYSDKGDLYKGDQLLGNIYFTTNKTSPFRIAKDSYLWMSYSDDDGKTWSAPQDITPMVKADWMKFLGVGPGTGIVLRNGPHKGRILIPVYTTNNVSHLDGSQSSRVIYSDDHGKTWHAGEAVNDNRQVDGQKIHSSTMNNRRAQNTESTVVQLNNGDVKLFMRGLTGDLQVATSKDGGVTWEKDIKRYPQVKDVYVQMSAIHTMHEGKEYIILSNAGGPKRENGMVHLARVEENGELTWLKHNPIQKGEFAYNSLQELGNGEYGILYEHTEKGQNAYTLSFRKFNWEFLSKNLISPTEAN
[2]
  protection against nasal carriage / colonization (nasal wash and nasal tissue): solid protection
[2]; listed as rNanA571
  protection against nasal carriage / colonization (nasal wash and nasal tissue): elicited protection
[2]; figure legend FIG. 11
  in vivo protection to S. pneumoniae challenge: elicited in vivo protection
[3]
  sialidase activity of the recombinant protein: active
[3]; listed as rNanA571
  sialidase activity of the recombinant protein: enzymatically active
[4]
  neuraminidase activity: 3.9 µmol/min/mg

B3: NanA215: recombinant NanA fragment from TIGR4, residues 347-561, covers 2 of 4 Asp boxes; His-tagged form SEQ ID NO:20 (protein)
chain: RIPALLKTDKGTLIAGADERRLHSSDWGDIGMVIRRSEDNGKTWGDRVTITNLRDNPKASDPSIGSPVNIDMVLVQDPETKRIFSIYDMFPEGKGIFGMSSQKEEAYKKIDGKTYQILYREGEKGAYTIRENGTVYTPDGKATDYRVVVDPVKPAYSDKGDLYKGDQLLGNIYFTTNKTSPFRIAKDSYLWMSYSDDDGKTWSAPQDITPMVKAD
[2]
  protection against nasal carriage / colonization (nasal wash and nasal tissue): no observed statistically significant protection
  protection from pneumococci reaching (invasion into) the lungs, olfactory bulb, or brain: did not elicit protection
[3]
  sialidase activity of the recombinant protein: no sialidase activity

B4: NanA186: recombinant near-N-terminal NanA fragment from TIGR4, residues 157-342; His-tagged form SEQ ID NO:22 (protein)
chain: EFKPDAKAPAFYNLFSVSSATKKDEYFTMAVYNNTATLEGRGSDGKQFYNNYNDAPLKVKPGQWNSVTFTVEKPTAELPKGRVRLYVNGVLSRTSLRSGNFIKDMPDVTHVQIGATKRANNTVWGSNLQIRNLTVYNRALTPEEVQKRSQLFKRSDLEKKLPEGAALTEKTDIFESGRNGNPNKDG
[2]
  protection against nasal carriage / colonization (nasal wash and nasal tissue): no observed statistically significant protection
  protection from pneumococci reaching (invasion into) the lungs, olfactory bulb, or brain: did not elicit protection
[3]
  sialidase activity of the recombinant protein: no sialidase activity

B5: NanA571_E647T: NanA571 with glutamate E647 converted to threonine (protein)
chain: B2 chain with E418T
[4]
  neuraminidase activity: Neither mutation exhibited any detectable neuraminidase activity

B6: NanA571_Y752F: NanA571 with tyrosine Y752 converted to phenylalanine (protein)
chain: B2 chain with Y523F
[4]
  neuraminidase activity: Neither mutation exhibited any detectable neuraminidase activity
